Numbering of substitutions follows the chain as printed.
What was measured:
Test in all cases: Western blot, supernatants of 293FS cells
[1] = target: T1, soluble human IL-3Rα 1-306-His I50A (human, UniProt P26951 19-307)
T1 construct: supernatant of 293FS cells; also called I50, soluble alanine
T1 sequence: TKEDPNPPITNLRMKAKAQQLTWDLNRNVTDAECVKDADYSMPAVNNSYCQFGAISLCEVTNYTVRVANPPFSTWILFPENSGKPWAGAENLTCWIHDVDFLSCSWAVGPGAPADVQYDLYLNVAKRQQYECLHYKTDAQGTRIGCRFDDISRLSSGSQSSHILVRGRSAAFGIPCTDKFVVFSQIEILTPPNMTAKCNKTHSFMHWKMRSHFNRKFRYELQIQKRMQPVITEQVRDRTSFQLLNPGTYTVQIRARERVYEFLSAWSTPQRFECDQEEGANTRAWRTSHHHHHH

[2] = target: T2, soluble human IL-3Rα 1-306-His S59A (human, UniProt P26951 19-307)
T2 construct: supernatant of 293FS cells; also called S59, soluble alanine
T2 sequence: T1 sequence with A32I, S41A

[3] = target: T3, soluble human IL-3Rα 1-306-His F70A (human, UniProt P26951 19-307)
T3 construct: supernatant of 293FS cells; also called F70, soluble alanine
T3 sequence: T1 sequence with A32I, F52A

[4] = target: T4, soluble human IL-3Rα 1-306-His R84A (human, UniProt P26951 19-307)
T4 construct: supernatant of 293FS cells; also called R84, soluble alanine
T4 sequence: T1 sequence with A32I, R66A

[5] = target: T5, soluble human IL-3Rα 1-306-His P88A (human, UniProt P26951 19-307)
T5 construct: supernatant of 293FS cells; also called P88, soluble alanine
T5 sequence: T1 sequence with A32I, P70A

[6] = target: T6, soluble human IL-3Rα 1-306-His F90A (human, UniProt P26951 19-307)
T6 construct: supernatant of 293FS cells; also called F90, soluble alanine
T6 sequence: T1 sequence with A32I, F72A

[7] = target: T7, soluble human IL-3Rα 1-306-His W93A (human, UniProt P26951 19-307)
T7 construct: supernatant of 293FS cells; also called W93, soluble alanine
T7 sequence: T1 sequence with A32I, W75A

Measured: binding result

B1: antibody CSL362 (antibody, V domains shown)
VH: EVQLVQSGAEVKKPGESLKISCKGSGYSFTDYYMKWARQMPGKGLEWMGDIIPSNGATFYNQKFKGQVTISADKSISTTYLQWSSLKASDTAMYYCARSHLLRASWFAYWGQGTMVTVSS
VL: DIVMTQSPDSLAVSLGERATINCESSQSLLNSGNQKNYLTWYQQKPGQPPKPLIYWASTRESGVPDRFSGSGSGTDFTLTISSLQAEDVAVYYCQNDYSYPYTFGQGTKLEIKR
no binding: all assays above

From patent publication US20160031996A1 (CSL, published 2016)
